We go through 16 sequences from the nanobody polyreactivity screen of Harvey et al. (2022).

The data set in a line: yeast display, Sf9 membrane polyspecificity reagent, FACS + sequencing; frameworks hold sequencing errors. The procedure, abridged: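 Galactose induction of a Saccharomyces cerevisiae BJ5465 synthetic nanobody display library ran 36–48 hours. The cells were then stained for 1 hour at 4 °C with 10% biotinylated, detergent-solubilized Sf9 membrane reagent, pulled down on streptavidin microbeads and FACS-sorted into low and high (top ~1%) gates on expression and reagent-binding fluorescence. Labels for polyreactivity follow the gate of origin.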
On to “QVQLVESGGGLVQAGGSLRLSCASSGIIFVYYAMGWYRQAPGKERELVAVITESGVSTYYADSVKGRFTISRDNAKNTVYLQMNSLKPEDTAVYYCNRDYPYIWHKGARYWHENDYWGQGTQVTVSS”, for which the “polyreactivity (PSR sort gate)” value was “low polyreactivity”.

Turning to “QVQLVESGGGLVQAGGSLRLSCASSGIIFYKYAMGWYRQAPGKERELVAVISRGGGSTYYADSVKGRFTISRDNAKNTVYLQMNSLKPEDTAVYYCAADPRVTRSYTYDYWVQGTQVTVSS”, the “polyreactivity (PSR sort gate)” value is “high polyreactivity”.

With “QVQLVESGGGLVQAGGSLRLSCASSGLIFAYYGMVWYRQAPGKEREFVAAISWRGGSTYYADSVKGRFTISRDNAKNTVYLQMNSLKPEDTAVYYCAARPLYGSARTNYGYWGQGTQVSVSS”, the “polyreactivity (PSR sort gate)” value was “high polyreactivity”.

“QVQLVESGGGLVQAGGSLRLSCASSGLIFVVYAMGWYRQAPGKERELVAAISTSGDRTYYADSVKGRFTISRDNAKNTVYLLMNSLKPEDTAVYYCAAGRRKVPYCREYYYWGQVTQVTVSS”: the “polyreactivity (PSR sort gate)” value is “high polyreactivity”.

Consider “QVQLVESGGGLVQAGGSLRLSCASSGLIFYDNMGWYRQAPGKETELVAAISSSGGSTSYADSVKGRFTISRDNAKNTVYLQMNSLKPEDTAVYYCAADSYPAYLGFFGFDYWGQGTQVTVSS”, for which the “polyreactivity (PSR sort gate)” value was “low polyreactivity”.

“QVQLVESGGGLVQAGGSLRLSCASSGLTFAAYAMGWSRQAPGKERELVAAISRRGGSTYYADSVKGRFTISRDNAKNTVYLQMNSLKPEDTAVYYCAAENEVYWYDVEYWGQGTQVTVSS”: the “polyreactivity (PSR sort gate)” value was “high polyreactivity”.

For the sequence “QVQLVESGGGLVQAGGSLRLSCASSGLTFYPYAMGWYRQAPGKERELVAAISKSGGRTSYADSVKGRFTISRDNAKNTVYLQMNSLKPEDTAVYYCNARSGTFGYSTYGYWGQGTQETVSS”, the “polyreactivity (PSR sort gate)” value is recorded as “high polyreactivity”.

In the case of “QVQLVESGGGLVQAGGSLRLSCASSGNTFVAYAMGWYRQAPGKERELVAGITRGGTTYYADSVKGRFTISRDNAKNTVYLQMNSLKPEDTAVYYCAARLGYRYNYWGQGTQVTVSS”, the “polyreactivity (PSR sort gate)” value is listed as “high polyreactivity”.

For “QVQLVESGGGLVQAGGSLRLSCASSGRIFGIYAMGWYRQAPGKESELVARITGGGSTNYADSVKGRFTISRDNAKNTVYLQMNSLKPEDTAVYYCAATVRRIVGNITRYDYWGQGTQVTVSS”, the “polyreactivity (PSR sort gate)” value is on record as “low polyreactivity”.

With “QVQLVESGGGLVQAGGSLRLSCASSGRIFGLYAMGWYRHAPGKERELVAAITLSGDGTDYADSVKGRFTISRDNAKNTVYLQMNSLKPEDTAVYYCAKVGQYWWNMDYWGQGTQVTVSS”, the “polyreactivity (PSR sort gate)” value is “low polyreactivity”.

Regarding “QVQLVESGGGLVQAGGSLRLSCASSGRIFGVYAMGWYRQAPGKERELVAAITRGASTYYADSVKGRFTISRDNAKNTVYLQMNSLKPEDTAVYYCAVSQHRGIYRKYDYWGQGTQVTVSS”, the “polyreactivity (PSR sort gate)” value is “high polyreactivity”.

With “QVQLVESGGGLVQAGGSLRLSCASSGRIFNGNTMGWYRQAPGKERELVAGITGSSGSTYYADSVKGRFTISRDNANNSVYLPMNSLKPEDTGVYYCAAGRRYRCVGYGYWGQGTQVTVSS”, the “polyreactivity (PSR sort gate)” value was “high polyreactivity”.

For “QVQLVESGGGLVQAGGSLRLSCASSGRIFQFYAMGWYRQEPGKERELVASISWSGGRTYYADSVKGRFTISRDNAKNTVYLQMNSLNPEDTAVYYCAADYYDYYYWGQGTQVTVSS”, the “polyreactivity (PSR sort gate)” value is on record as “high polyreactivity”.

For the sequence “QVQLVESGGGLVQAGGSLRLSCASSGRIFRGYAKGGYRQAPGKERELVADISSGASTNYADSVKGRFTISRDNAKNSVYLQMNRLKPEDTAVYYCAASIYAALIGGPGYDYWGQGTQVTVSS”, the “polyreactivity (PSR sort gate)” value is listed as “low polyreactivity”.

With “QVQLVESGGGLVQAGGSLRLSCASSGRIFRSYAMGWYRQAPGKERELVAAISSGGGSTYYADSVKGRFTISRDNAKNTVYLQMNSLKPEDTAVYYCNTDFYYDDVSQAHDYWGQGTQVTVSS”, the “polyreactivity (PSR sort gate)” value is reported as “high polyreactivity”.

Turning to “QVQLVESGGGLVQAGGSLRLSCASSGRIFYTYAMGWYRQAPGKERELVAAIRYSGGSTYYADSVKGRFTISRDNAMNTVYLQINSLKPEDTAVYYCAATVYTKQFDYWGQGTQVTVSS”, the “polyreactivity (PSR sort gate)” value is listed as “high polyreactivity”.
